From publication PMC2542413 come the findings set out here.

Assay [1] addresses YU2 gp140-F trimers (HIV-1 (primary isolate YU2) | not stated). The experiment in a line: SEC; gel filtration on a Superdex 200 26/60 prep grade column; trimers separated from lower molecular weight forms.
Assay [2] addresses soluble human 4-domain CD4 (human). The experiment in a line: ELISA; CD4 solution competition assay: Env trimers co-incubated with 2, 4 or 9 nM sCD4 in PBS at room temperature for 1 h; non-Env-bound sCD4 captured on plate-bound anti-CD4 RPA-T4 and detected with biotin-OKT-4. (In general: An ELISA detects its analyte on a solid surface through an enzyme-linked reagent.)

As usually defined, the stoichiometry N is the number of molecules, sites or subunits per partner or assembly. Take YU2 gp140-F trimers: the stoichiometry N in assay [1] stood at 3. In addition, in assay [2], the half-maximal binding (with 2 nM sCD4) was determined as 7 nM, the half-maximal binding (with 4 nM sCD4) turned out to be 13 nM and the half-maximal binding (with 9 nM sCD4) came to 26 nM.
